By Kd is commonly meant the equilibrium constant for the complex coming apart. Usually koff stands for a measure of how fast the partners let go of each other. Broadly, the kon is the rate constant with which the complex forms.

The record followed here is US20160053011A1 (ABCLON, published 2016).

The labels stand for the following.
B1: hz1E11 CDR-L3 L91A (antibody, V domains shown)
VH: EVQLVESGGGLVQPGGSLRLSCAASGFTFSSYTMSWVRQAPGKGLEWVAYISNGGGSTYYPDTVKGRFTISRDNAKNSLYLQMNSLRAEDTAVYYCARHLGGTASFDYWGQGTLVTVSS
VL: DIQMTQSPSSLSASVGDRVTITCLASQTIGTWLAWYQQKPGKAPKLLIYVATSLADGVPSRFSGSGSGTDFTLTISSLQPEDFATYYCQQAYSTPWTFGQGTKVEIK
notes: Alanine scanning variant, expressed in bacteria, periplasmic extract
B2: hz1E11 CDR-H3 S100aA (antibody, name in Kabat numbering, V domains shown)
VH: EVQLVESGGGLVQPGGSLRLSCAASGFTFSSYTMSWVRQAPGKGLEWVAYISNGGGSTYYPDTVKGRFTISRDNAKNSLYLQMNSLRAEDTAVYYCARHLGGTAAFDYWGQGTLVTVSS
VL: DIQMTQSPSSLSASVGDRVTITCLASQTIGTWLAWYQQKPGKAPKLLIYVATSLADGVPSRFSGSGSGTDFTLTISSLQPEDFATYYCQQLYSTPWTFGQGTKVEIK
notes: as for B1
B3: hz1E11 CDR-L3 Q90A (antibody, V domains shown)
VH: EVQLVESGGGLVQPGGSLRLSCAASGFTFSSYTMSWVRQAPGKGLEWVAYISNGGGSTYYPDTVKGRFTISRDNAKNSLYLQMNSLRAEDTAVYYCARHLGGTASFDYWGQGTLVTVSS
VL: DIQMTQSPSSLSASVGDRVTITCLASQTIGTWLAWYQQKPGKAPKLLIYVATSLADGVPSRFSGSGSGTDFTLTISSLQPEDFATYYCQALYSTPWTFGQGTKVEIK
notes: as for B1
B4: hz1E11 CDR-L3 Q89A (antibody, V domains shown)
VH: EVQLVESGGGLVQPGGSLRLSCAASGFTFSSYTMSWVRQAPGKGLEWVAYISNGGGSTYYPDTVKGRFTISRDNAKNSLYLQMNSLRAEDTAVYYCARHLGGTASFDYWGQGTLVTVSS
VL: DIQMTQSPSSLSASVGDRVTITCLASQTIGTWLAWYQQKPGKAPKLLIYVATSLADGVPSRFSGSGSGTDFTLTISSLQPEDFATYYCAQLYSTPWTFGQGTKVEIK
notes: as for B1
B5: hz1E11 CDR-H3 T99A (antibody, name in Kabat numbering, V domains shown)
VH: EVQLVESGGGLVQPGGSLRLSCAASGFTFSSYTMSWVRQAPGKGLEWVAYISNGGGSTYYPDTVKGRFTISRDNAKNSLYLQMNSLRAEDTAVYYCARHLGGAASFDYWGQGTLVTVSS
VL: DIQMTQSPSSLSASVGDRVTITCLASQTIGTWLAWYQQKPGKAPKLLIYVATSLADGVPSRFSGSGSGTDFTLTISSLQPEDFATYYCQQLYSTPWTFGQGTKVEIK
notes: as for B1
B6: hz1E11 CDR-L3 T94A (antibody, V domains shown)
VH: EVQLVESGGGLVQPGGSLRLSCAASGFTFSSYTMSWVRQAPGKGLEWVAYISNGGGSTYYPDTVKGRFTISRDNAKNSLYLQMNSLRAEDTAVYYCARHLGGTASFDYWGQGTLVTVSS
VL: DIQMTQSPSSLSASVGDRVTITCLASQTIGTWLAWYQQKPGKAPKLLIYVATSLADGVPSRFSGSGSGTDFTLTISSLQPEDFATYYCQQLYSAPWTFGQGTKVEIK
notes: as for B1
B7: hz1E11 CDR-L3 Y92A (antibody, V domains shown)
VH: EVQLVESGGGLVQPGGSLRLSCAASGFTFSSYTMSWVRQAPGKGLEWVAYISNGGGSTYYPDTVKGRFTISRDNAKNSLYLQMNSLRAEDTAVYYCARHLGGTASFDYWGQGTLVTVSS
VL: DIQMTQSPSSLSASVGDRVTITCLASQTIGTWLAWYQQKPGKAPKLLIYVATSLADGVPSRFSGSGSGTDFTLTISSLQPEDFATYYCQQLASTPWTFGQGTKVEIK
notes: as for B1
B8: hz1E11 CDR-L3 S93A (antibody, V domains shown)
VH: EVQLVESGGGLVQPGGSLRLSCAASGFTFSSYTMSWVRQAPGKGLEWVAYISNGGGSTYYPDTVKGRFTISRDNAKNSLYLQMNSLRAEDTAVYYCARHLGGTASFDYWGQGTLVTVSS
VL: DIQMTQSPSSLSASVGDRVTITCLASQTIGTWLAWYQQKPGKAPKLLIYVATSLADGVPSRFSGSGSGTDFTLTISSLQPEDFATYYCQQLYATPWTFGQGTKVEIK
notes: as for B1
B9: hz1E11 CDR-H3 H95A (antibody, name in Kabat numbering, V domains shown)
VH: EVQLVESGGGLVQPGGSLRLSCAASGFTFSSYTMSWVRQAPGKGLEWVAYISNGGGSTYYPDTVKGRFTISRDNAKNSLYLQMNSLRAEDTAVYYCARALGGTASFDYWGQGTLVTVSS
VL: DIQMTQSPSSLSASVGDRVTITCLASQTIGTWLAWYQQKPGKAPKLLIYVATSLADGVPSRFSGSGSGTDFTLTISSLQPEDFATYYCQQLYSTPWTFGQGTKVEIK
notes: as for B1
B10: hz1E11 CDR-H3 L96A (antibody, name in Kabat numbering, V domains shown)
VH: EVQLVESGGGLVQPGGSLRLSCAASGFTFSSYTMSWVRQAPGKGLEWVAYISNGGGSTYYPDTVKGRFTISRDNAKNSLYLQMNSLRAEDTAVYYCARHAGGTASFDYWGQGTLVTVSS
VL: DIQMTQSPSSLSASVGDRVTITCLASQTIGTWLAWYQQKPGKAPKLLIYVATSLADGVPSRFSGSGSGTDFTLTISSLQPEDFATYYCQQLYSTPWTFGQGTKVEIK
notes: as for B1
B11: hz1E11-3 (IgG) (antibody, V domains shown)
VH: EVQLVESGGGLVQPGGSLRLSCAASGFTFSSYTMSWVRQAPGKGLEWVAYISNGGGSTYYPDTVKGRFTISRDNAKNSLYLQMNSLRAEDTAVYYCARHLGGTASFDYWGQGTLVTVSS
VL: DIQMTQSPSSLSASVGDRVTITCLASQTIGTWLAWYQQKPGKAPKLLIYVATSLADGVPSRFSGSGSGTDFTLTISSLQPEDFATYYCDQMYSTPWTFGQGTKVEIK
notes: heavy chain variable region the same as hz1E11
B12: hz1E11-154 (IgG) (antibody, V domains shown)
VH: EVQLVESGGGLVQPGGSLRLSCAASGFTFSSYTMSWVRQAPGKGLEWVAYISNGGGSTYYPDTVKGRFTISRDNAKNSLYLQMNSLRAEDTAVYYCARHLGGTASFDYWGQGTLVTVSS
VL: DIQMTQSPSSLSASVGDRVTITCLASQTIGTWLAWYQQKPGKAPKLLIYVATSLADGVPSRFSGSGSGTDFTLTISSLQPEDFATYYCQQTAFSPWTFGQGTKVEIK
notes: as for B11
B13: hz1E11-133 (IgG) (antibody, V domains shown)
VH: EVQLVESGGGLVQPGGSLRLSCAASGFTFSSYTMSWVRQAPGKGLEWVAYISNGGGSTYYPDTVKGRFTISRDNAKNSLYLQMNSLRAEDTAVYYCARHLGGTASFDYWGQGTLVTVSS
VL: DIQMTQSPSSLSASVGDRVTITCLASQTIGTWLAWYQQKPGKAPKLLIYVATSLADGVPSRFSGSGSGTDFTLTISSLQPEDFATYYCQQNAYAPWTFGQGTKVEIK
notes: as for B11
B14: M1-L-A1-3-1C3 (hz1E11-3), periplasmic extract (antibody, V domains shown)
VH: EVQLVESGGGLVQPGGSLRLSCAASGFTFSSYTMSWVRQAPGKGLEWVAYISNGGGSTYYPDTVKGRFTISRDNAKNSLYLQMNSLRAEDTAVYYCARHLGGTASFDYWGQGTLVTVSS
VL: DIQMTQSPSSLSASVGDRVTITCLASQTIGTWLAWYQQKPGKAPKLLIYVATSLADGVPSRFSGSGSGTDFTLTISSLQPEDFATYYCDQMYSTPWTFGQGTKVEIK
notes: Library clone expressed in bacteria with IPTG, tested as periplasmic extract; LCDR3 DQMYSTPWT
B15: M3-L-A1-3-2C2 (antibody, V domains shown)
VH: EVQLVESGGGLVQPGGSLRLSCAASGFTFSSYTMSWVRQAPGKGLEWVAYISNGGGSTYYPDTVKGRFTISRDNAKNSLYLQMNSLRAEDTAVYYCARHLGGTASFDYWGQGTLVTVSS
VL: DIQMTQSPSSLSASVGDRVTITCLASQTIGTWLAWYQQKPGKAPKLLIYVATSLADGVPSRFSGSGSGTDFTLTISSLQPEDFATYYCQQLGFIPWTFGQGTKVEIK
notes: hz1E11 library clone, periplasmic extract
B16: M1-LH-A3-3-1A6 (antibody, name in Kabat numbering, V domains shown)
VH: EVQLVESGGGLVQPGGSLRLSCAASGFTFSSYTMSWVRQAPGKGLEWVAYISNGGGSTYYPDTVKGRFTISRDNAKNSLYLQMNSLRAEDTAVYYCARNYGGTASFDYWGQGTLVTVSS
VL: DIQMTQSPSSLSASVGDRVTITCLASQTIGTWLAWYQQKPGKAPKLLIYVATSLADGVPSRFSGSGSGTDFTLTISSLQPEDFATYYCQQLVRTPWTFGQGTKVEIK
notes: as for B15
B17: M3-L-A1-3-1A12 (hz1E11-133), periplasmic extract (antibody, V domains shown)
VH: EVQLVESGGGLVQPGGSLRLSCAASGFTFSSYTMSWVRQAPGKGLEWVAYISNGGGSTYYPDTVKGRFTISRDNAKNSLYLQMNSLRAEDTAVYYCARHLGGTASFDYWGQGTLVTVSS
VL: DIQMTQSPSSLSASVGDRVTITCLASQTIGTWLAWYQQKPGKAPKLLIYVATSLADGVPSRFSGSGSGTDFTLTISSLQPEDFATYYCQQNAYAPWTFGQGTKVEIK
notes: Library clone expressed in bacteria with IPTG, tested as periplasmic extract; LCDR3 QQNAYAPWT
B18: M3-L-A1-3-1F11 (hz1E11-154), periplasmic extract (antibody, V domains shown)
VH: EVQLVESGGGLVQPGGSLRLSCAASGFTFSSYTMSWVRQAPGKGLEWVAYISNGGGSTYYPDTVKGRFTISRDNAKNSLYLQMNSLRAEDTAVYYCARHLGGTASFDYWGQGTLVTVSS
VL: DIQMTQSPSSLSASVGDRVTITCLASQTIGTWLAWYQQKPGKAPKLLIYVATSLADGVPSRFSGSGSGTDFTLTISSLQPEDFATYYCQQTAFSPWTFGQGTKVEIK
notes: Library clone expressed in bacteria with IPTG, tested as periplasmic extract; LCDR3 QQTAFSPWT

The target in one experiment is T1, HER2-ECD (ELISA antigen of Examples 13 and 14) (human, UniProt P04626 23-652).
T1 construct: extracellular domain
The experiment in a line: ELISA, periplasmic extract on HER2-ECD.
B1: the binding result is reported as “binds”.
Same read-out and setting: to B2 belongs “binds”.
For B3, the binding result is recorded as “binds”.
Still for that read-out and setting: to B4 belongs “binds”; to B5, “binds”; to B6, “binds”.
On the same count and under the same terms, to B7 belongs “binds”.
On the same count and under the same terms, to B8 belongs “binds”; to B9, “binds”.
With B10, the binding result is “binds”.

The next experiment concerns the target T2, HER2-ECD-His protein (human, UniProt P04626 23-652).
T2 construct: extracellular domain; not shown: His tag
The experiment in a line: SPR, IgG captured by goat anti-human IgG on CM5, HER2-ECD-His analyte. The procedure: The goat anti-human IgG (Invitrogen, #H10500) at a concentration of 2000 RU was immobilized to a CM5 sensor chip via ECD/NHS method. Then, the antibodies were allowed to bind at a rate of 50 μL/min for 5 minutes, and allowed the buffer to flow thereonto for 5 minutes for stabilization purpose. […] After analyzing each of the concentrations, they were recycled using 10 mM Glycine (pH 1.5) and performed the subsequent assays. The affinities of the antibodies were analyzed via BIAevaluation software.
(In SPR one partner is held on a chip, and binding of the other changes the refractive index at the surface.)
The molecule B11 had a Kd of 5.2 nM, an off-rate constant (koff) of 0.0002 s⁻¹ and a kon of 38000 M⁻¹ s⁻¹.
Regarding B12, the Kd came out at 1.1 nM, the “fold decrease in Koff (kd) compared to hz1E11” value came to 8.4 fold, the “fold improvement of affinity compared to hz1E11” value is 20 fold and the koff amounted to 9.9e-05 s⁻¹. For the same molecule, the kon turned out to be 86000 M⁻¹ s⁻¹.
Taken in the same sequence, the figures for B13 were 1.5 nM, 8.4 fold, 15 fold, 9.9e-05 s⁻¹ and 64000 M⁻¹ s⁻¹.

A further experiment has as its target T2, HER2-ECD-His protein. The experiment in a line: SPR (Biacore 3000), HER2-ECD-His amine-coupled to CM5, periplasmic extract as analyte. The procedure:
In order to select clones with improved Koff among the selected clones, the clones were analyzed via Biacore 3000 (GE Healthcare). The HER2-ECD-His protein was immobilized to a CM5 sensor chip via an amine coupling method using ECD/NHS. […] The Koff value for each antibody was analyzed via BIAevaluation software.
Consider B14, for which the “Degree of reduction (Fold) of koff against hz1E11” value (“Degree of reduction (Fold) of koff” for short) came out at 7.4 fold.
B15: the “Degree of reduction (Fold) of koff” value is 2 fold.
B16: the “Degree of reduction (Fold) of koff” value worked out at 5.8 fold.
Still for that read-out and setting: the same measure for B17: 30.4 fold; for B18: 9.7 fold.
